Assay results published in the DeepSol protein solubility set.

Test: soluble on expression in E. coli; label from the status in PepcDB or PDB records

| Sequence | soluble on expression in E. coli |
| --- | --- |
| MKYIVAVNASPRSGWNTSQLVEAAAKGAKEAGATVDIIDLYKLEPFQGCISCFGCKLPRTFGRCVSKDGLSEVLDKIRKADGLILGSPNYLGNLTAGFRALYERLIFQSLTYNKERPNCNEHMIPVLLITTSNCDESIYDKIGYTSMLEGYKQMLERFVGPLEHHHHHH | not soluble |
| MVLLVNIDDNEKWDNTVKGFENFDVYYLSGYVKAFHAHGDGEPKLFFYEDSNIKAINVFMKRDIEKDQNFSGKIPPNTFYDAATPYGYGGFLIEGNVTDESLRTLEKEYSELCLNEGIISEFVRFHPVINNSGTVSSIYDILELGRTVTIELDSREKVWEGFAGNNRNKVRKAKKSGVEIFWGRSPKLFDTFIPMYNETMDNDGASGYYYFKKDFYNSILEDLKYNSLIFYAVFEDRIISMSIILFANKQMHYHLSATDREYRNLAPTNLLLYEAACWGIENGYKTFHLGGGLGSREDSLYQFKKGFNKNSSTYFCIGKKIFDKEKYDELIKIRKQDPYFDENKLFFPLYRG | not soluble |
| MILSMTGFGKHTIQFADKKITATIKSLNSKQFDLSTKISSRYRDRELPLRALVSADIGRGKVDFSLFLEESGSTDVVSQIFDTEKMSSYFFQLKEFGEKMGVEVPAGGWFEQLLRIPGVIQIDEDKEEEIPEDEWAVVIETCRRALDQLIGFREQEGAMLEQVFTEKISNISSLLLQIEQYEPDRIQRIKERIEENLTKISEKDYDKNRFEQEMIYYIEKLDVNEEKHRLRNHLSYFLQTMQGEPGQGKKLSFIAQEIGREINTLGSKSNHVEMQQIVVQMKDELEQIKEQVLNVL | not soluble |
| MIDTTVFQNKTAVYYTLGCKLNFSETSTIGKILREAGVRTARKGEKADICVVNTCSVTEMADKKCRQAIHRLVKQHPGAFVVVTGCYAQLKPGDVAKIKGVDVVLGAEQKGDLLQYLGDLHKHEEGEAFTTTTKDIRSFSPSCSRGDRTRFFLKVQDGCDYFCSYCTIPFARGRSRNGTVASMVEQARQAAAEGGKEIVLTGVNIGDFGKTTGETFFDLVKALDQVEGIERYRISSIEPNLLTDEIIEFVSRSRRFMPHFHIPLQSGCDEVLKLMRRRYDTALFASKVKKIKEVMPDAFIGVDVIVGTRGETEEYFEQAYQFISGLDVTQLHVFSYSERPGTQALKIDYVVSPEEKHQRSQRLLTLSDEKTRAFYTRHIGQTMQVLMEKSKAGTPMHGFTANYIRVEVENDESLDNQMINVRLGEFNEDMTALKGTILMNYEV | not soluble |
| MAHHHHHHMSTSVVARHPQMRPSRKRQAQRQHPRQQRSVAHKAQRAPSSGHGASSVEHLPRDAVVHVALRQQHRPAGQAHSRIKRHRVVLRRQKVVPHKRHGGARHTHSPTHRHRVLAQQEVAVNKRHHGAAAGRNAALHRHAQPQRRLHQQSVHVQRTARRQRHAANHQHANSVAEHSRHLRSRNCQHAPRQIHVVHHEARRRVAKVVGAAVRNTRLCYQHRVHHSDARARRKPVRHQHTAARTRLKTADQHINALASRRVGPPPNNVQARSAQKRAVRQRHVAHAP | not soluble |
| MSLAADTLRIKQLQRCGDLFSDSQQRWCLCAEGLRANLPTVWLGGTRLSEADIERQGDRLTLKLARQAQRSAPLWLADGGRTSNPVWLTRQRSHVIAAGPDEVAKNMDGLTTYVDLVSLLIEEKYDGLGEARRIAGKYGAQVVGAIPPLNVYQLRLPVEDLVQRDAMVLRMGSEVSVDAVIVEESAPERGEEGNGRGTRAIDQADEWAANRFMDALYFYRRRIAASGLPVKPVRVGVIEREVDFDAPGFSHYRGGCEQGQTCLYARDGNRPASHGSHVAGILAAQGEGFLPGLGKHSPGFEVMVERNSDAGITANIAASVNLVEDGVRVLNWSWGIHRVGARDVNGDEVDSLVRSGLAMSGYEELLEEFFLWLRKEHPDVVVVNSAGNGASWSGTDEYRLPSSFITEQLLVVGGHQRSGKATAVEAHDHVRKRHSSNIDMRVDVSAAACIRPVSAEAAHCGTSYATPLVTATVATMLSINPALTPEQVRMLLRRSALTLGAEQDFEAMDAEDLTAPILPSERGGRLNDPDLGRSARLDMQRALDLAVQSLERVREGHHHHHH | not soluble |
| MDPKRWWEKQEDIVISKDQIPRCDNKEVKMFGGMLLACDDVVTEDQLSWAPGFTDLPKKRGKKKDLNKFDAGILPGTSKQNNPMDPQVRLLLEASWEAMVDAGINPRGLRGSQIGDFDECATPGTSGTQKQNPVTEMGCIMSDTVPSMFSNRISYTFDLQGPSHSADKINFSTKKRMTKLRNRNSIV | not soluble |
| MSLHWSFPEMIRLFSDEYRSSMLSEGNFGVERESQRVNYSGDLALTPHPSVFGDKFENPRITTDFSESQIEMITPPLKSAEEVYKALNDINNEVKNALKGELLWPLSMPPRLPKEEDIPVAQFPDTEDGRQKQIYRNGLALRYGKKMQMISGIHYNFSFSDKMIDFIYRQLRIEKTKRQFIDEMYFSLTRNFLRYHWILIYLFGASPICDSTYNSVIFKELEKIEKCCPHCAGKIKNFNRYATSLRVSRFGYSDTDEKKYTVYFNSLREYETKIKKMMETESNKYSKLGIYKDGVQIQLNGNLLQSESEFYAPIRFKRNIKKGETQLTALVNRGVEYIEIRILDVNPFDKVGISVEQMNFLQVFNVFCLFEESKSIDEEQMERINTNHQLAALLGRNEDLMLYKYNDDSRIPLKNFGDEIFEKLRIVAKLMDKDNVEKKYSESVESEYKKLHNIELLPSERICREMDNDNRSYIQFGMEYAEAEGHHHHHH | not soluble |
| MVTKRIIPCLDVHNGRVVKGVNFVNIRDAGDPVEIASYYDKAGADELTFLDITASAEARNIMIDVVRRVAEQVFIPFTVGGGIRTVEDFREILKAGADKVSINSAAVKRPELISEAASRFGSQCVVVAIDAKRRDDNSGWDVYINGGRINTGKDAVEWAVEVEKLGAGEILLTSMDCDGTKKGYDIELTRKVSESVRIPVIASGGAGTMEHFREALVEGKADAVLAASLFHYREIEIMELKKYLKENGIEIRM | not soluble |
| MNAFDRARQSAIAAAREARGTYRNGLVTPTAGVAPGMTQANLIALPRDWAYDFLLYAQRNPKACPILDVSDAGSPTTLLAEGSDLRTDIPMYRIWRDGKLAEEVSDATQAWAEHDDMVAFLIGCSFTFETPLQEAGIEVRHITDGCNVPMYRTNRACRPAGRLHGEMVVSMRPIPADRVAEASAISGRYPSVHGAPVHIGEPGRLGINDLSRPDFGDAVSIKPGEVPVFWACGVTPQAAVMASGVPFAITHSPGYMFITDVPDSTYHVLEHHHHHH | soluble |
| GSHMNPLASLTTDKNDLYINWLKSLSFFQTNSSCAEALVKVIPHYHNKLIDFSQVLQLVFSASEKFPIQENQPLPEQLMFLSNLEKQTPFAKAVGSSIYKLVTGKNLSLDFASQILKEASILEH | soluble |
| SLSVVAPAVYVGTWHKYNCGSIAGRWFDLTTFDDERDFFAACRALHQDEADPELMFQDYEGFPGNMASECHINWAWVEGFRQARDEGCEEAYRLWVEDTGETDFDTFRDAWWGEADSEEAFAVEFASDTGLLADVPETVALYFDYEAYARDLFLDSFTFIDGHVFRR | soluble |
| MAHHHHHHMSAEGLSRFFTENLTEEGRSDLNQWEAKTLEFAQRVNRDGCEGVAFITSGGTAVPLEVHAVRFVTNFSSGGRGAVLVEELLARGWACILLRSKTSQLPFRRLVDNMTTEQFFAELNAPQKSCDVSAAIEAYTKYKSRFLEIPYYTVVEYLYLFSLLTGTLSHRAECLRQTPMMLLAAAAVSDYYIPESRLSHHKMSGGDGLTIQFNNVPKILDLISEEWHGSSRAAPRYLITFKLETEEEQLKAKALRNLGLYRCDAVVANMLQNYRERVLVFWNGEEQNPTLLHRSPNGSVESLMIDHVLQRIKNHAKGCGMQYKLEGRRR | soluble |
| MKLALFDLDNTLLAGDSDFQWAQFLIEQQVLDREVYEARNIEFYEQYKAGTLDIHEFLDFQLKPLSRHPREQLNTWRSDFIERKIAPLIAPGARELIARHQAEKDLCIIITATNSFVTAPIARMLGIDHLIATEPEQKNGEFTGRVTGIPSFQAGKITRLEQWLDAHNLTWLSFLQSWFYSDSLNDLPLLKRVTHPVAVDPDATLHEHAKKSGWPIISLRQ | not soluble |
| MILELDCGNSLIKWRVIEGAARSVAGGLAESDDALVEQLTSQQALPVRACRLVSVRSEQETSQLVARLEQLFPVSALVASSGKQLAGVRNGYLDYQRLGLDRWLALVAAHHLAKKACLVIDLGTAVTSDLVAADGVHLGGYICPGMTLMRSQLRTHTRRIRYDDAEARRALASLQPGQATAEAVERGCLLMLRGFVREQYAMACELLGPDCEIFLTGGDAELVRDELAGARIMPDLVFVGLALACPIE | not soluble |
| MGHHHHHHSHMEVVDPQQLGMFTEGELMSVGMDTFIHRIDSTEVIYQPRRKRAKLIGKYLMGDLLGEGSYGKVKEVLDSETLCRRAVKILKKKKLRRIPNGEANVKKEIQLLRRLRHKNVIQLVDVLYNEEKQKMYMVMEYCVCGMQEMLDSVPEKRFPVCQAHGYFCQLIDGLEYLHSQGIVHKDIKPG | not soluble |
| MAHHHHHHMTAHVDRCVFFSKMGACRHGDQCTKLHYRPDTSPTVLFPLMYPNPHAIEHIKDREWNFELDKKYLKKHFEHFYKEVWRTFMEFGRIAELRVVSNLGDHLLGNVYIRFEDPQVATRIVKELRGKKLNDIIVLPELSPVTNFAEACCKEDLENRCQRGEQCNYLHIMKVSRRLLEKLEKEQSKYWKKKERRHEHSSSDRKRSRSRSPADTRW | soluble |
| GPGSMTYYRERRKTLTVQGLKDAVQESLAKYLYDNAIFCAERLYALAPTHESLHTVAHCYVTSGDAGTAYRILRAHYPYLLSATPSFATTNSSTSGNGTGVGSNTAADAAARWDCQYLLGVTCGMTQRYMEGESFLEELERQQSSSEVLYWLGVCRRHLRRGYAEEAFAKSAVLDPLNFVAFENHVKMTRTPREEVRCIYTDAAPGVGAEDAVRRSSMSGMGIGGVGGAHRHVKREALRLYLSPFASVTFLQWTYRCKEARALLQHESFPERDSGWAFGALAMAYFHDGDVENSTVEFANMRRVAPWRLADPALVYYSTALWQRKELGTLGSLSQTLINEMPASPITLCVVANNYSLAKESKESLCMLNRAIQVDHDFAYAHTLRGYELLYLDLKSEAVDAFHEAILIDGGHYNAYAGLGELYFRSEDLQKARNYFQQAISINPLPTIMNRYAATYHRRDATRESLNEALRIYESAIRRHPTNLGARHQRAEVLIRLGRFHEAHDELLGMTKECPDEAMLYVTLAKCVHLMGLTGQAVQYYHTAMDLDPRRVGYIKSCLERLAMGKPDVAEANA | not soluble |
| MGSDKIHHHHHHMPTTASVLIRDSAPREATSPPFLDIRDVHKRFAGVKALRGVSLAIERGQIYHLLGENGCGKSTLIKIISGAQPPDEGTLVVEGREVAGLSPIMALAAGIETVYQDLSLLPNLSVAENIALSQQLVASGGQLARRLDLARLKATATRALEAVNLPAGDGFLATRVDELPIATRQLIAIARVIATDAKLVIMDEPTTALTKREVDNLIAVVEKLRAKGVAVLFVTHKLDECRTIGGRAIILRDGRKVMEGDIADFTKKDLSHWMTGRALDDSRYREAERGGERLLDVRDLGRANAFGGVSFSLNRGEILGVTGLLDSGRNELALALAGVCPADRGGVSLAGERVVLSQPADAIAAGIGYLPEDRLSEGLFLEKPIADNIIASVLDRLRGRLGMLDRPLSRSRAQEMTDDLQIATPDIANPVQSLSGGNQQRVLIGRWLMIEPRLLVLHGPTVGVDVGSKDTIFRIIQRLAKGGMAVIIISDDLPELLQNCDRILVMRKGRVAEVFDAEGLGEGALYRALVAEESPRSLP | not soluble |
